Source: the supplement of paper PMC7877785
± gives the uncertainty stated by the source.

Test: self-splicing fitness, log relative to wild type (ln ratio); higher = more splicing; Tetrahymena group I intron in knt gene, E. coli kanamycin selection, DiMSum; sequences stand for … in CUCUCU…GGAGGGAAAAGUUAUCAGGCAUGCACCUGGUAGCUAGUCUUUAAACCAAUAGAUUGCAUCGGUUUAAAAGGCAAGACCGUCAAAUUGCGGGAAAGGGGUCAACAGCCGUUCAGUACCAAGUCUCAGGGGAAACUUUGAGAUGGCCUUGCAAAGGGUAUGGUAAUAAGCUGACGGACAUGGUCCUAACCACGCAGCCAAGUCCUAAGUCAACAGAUCUUCUGUUGAUAUGGAUGCAGUUCACAGACUAAAUGUCGGUCGGGGAAGAUGUAUUCUUCUCAUAAGAUAUAGUCGGACCUCUCCUUAAUGGGAGCUAGCGGAUGAAGUGAUGCAACACUGGAGCCGCUGGGAACUAAUUUGUAUGCGAAAGUAUAUUGAUUAGUUUUGGAGUACUCGUGGUCG
How it was run: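 Fitness was computed with DiMSum as the error-weighted combination of replicate fold changes, kanamycin versus none, each normalised to wild type. The library randomised all eight intron nucleotides of the P1ex region, with the intron placed in the knt kanamycin-resistance gene on pET-22b(+) in E. coli BL21(DE3). Six replicate transformations were grown overnight at 37°C or 30°C on LB agar with or without 25 μg/mL kanamycin, plus 100 μg/mL carbenicillin, 50 μM IPTG and 0.2% rhamnose. Pooled colonies were amplicon-sequenced on an Illumina HiSeq 2500.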

Sequence	self-splicing fitness (ln) (30 °C)	self-splicing fitness (ln) (37 °C)
GUAAAGCAAUAUUACGACAG	-2.12 ± 0.17	-2.22 ± 0.25
GUAAAGCAAUAUUACGACGC	0.577 ± 0.16	0.0941 ± 0.19
GUAAAGCAAUAUUACGAGGG	-3.57 ± 0.24	
GUAAAGCAAUAUUACGAUAU	-0.349 ± 0.087	-0.0732 ± 0.11
GUAAAGCAAUAUUACGAUCA	-0.396 ± 0.11	-0.197 ± 0.11
GUAAAGCAAUAUUACGCCAG	-1.89 ± 0.083	-1.21 ± 0.14
GUAAAGCAAUAUUACGCCGA	-0.859 ± 0.11	-0.839 ± 0.14
GUAAAGCAAUAUUACGCCUG	-0.223 ± 0.15	0.555 ± 0.17
GUAAAGCAAUAUUACGCGAC	-0.509 ± 0.26	1.71 ± 0.45
GUAAAGCAAUAUUACGCUGG	-0.164 ± 0.086	-0.981 ± 0.14
GUAAAGCAAUAUUACGGAUG	-2.97 ± 0.24	-0.613 ± 0.19
GUAAAGCAAUAUUACGGCGU	-0.369 ± 0.069	0.409 ± 0.11
GUAAAGCAAUAUUACGGGAG	-3.68 ± 0.25	-1.67 ± 0.14
GUAAAGCAAUAUUACGGGUU	-1.72 ± 0.13	-1.86 ± 0.18
GUAAAGCAAUAUUACGGUCA	-0.163 ± 0.072	0.362 ± 0.097
GUAAAGCAAUAUUACGUGAC	-2.09 ± 0.076	-0.885 ± 0.078
GUAAAGCAAUAUUACGUGGU	-3.26 ± 0.12	-1.11 ± 0.095
GUAAAGCAAUAUUACGUGUU	-2.69 ± 0.098	-0.867 ± 0.11
GUACAGCAAUAUUACGAACG	-1.92 ± 0.17	-1.22 ± 0.19
GUACAGCAAUAUUACGACAA	-1.77 ± 0.14	-0.826 ± 0.12
GUACAGCAAUAUUACGACAU	-0.299 ± 0.012	0.127 ± 0.032
GUACAGCAAUAUUACGACCU	-0.715 ± 0.21	-0.152 ± 0.24
GUACAGCAAUAUUACGACUC	-0.243 ± 0.06	0.473 ± 0.068
GUACAGCAAUAUUACGAGUU	-1.7 ± 0.094	-1.36 ± 0.12

Sequence	self-splicing fitness (ln) (30 °C)	self-splicing fitness (ln) (37 °C)
GUACAGCAAUAUUACGAUAC	-2.35 ± 0.21	-2.52 ± 0.22
GUACAGCAAUAUUACGAUCA	-1.83 ± 0.13	-0.392 ± 0.2
GUACAGCAAUAUUACGCAUC	-3.74 ± 0.23	-1.36 ± 0.19
GUACAGCAAUAUUACGCCAA		-1.7 ± 0.29
GUACAGCAAUAUUACGCCCG	-1.85 ± 0.14	-1.38 ± 0.2
GUACAGCAAUAUUACGCCGC	-3.01 ± 0.24	-2.46 ± 0.45
GUACAGCAAUAUUACGCUGA	-2.47 ± 0.12	-1.33 ± 0.1
GUACAGCAAUAUUACGGAAU	-2.76 ± 0.11	-1.46 ± 0.12
GUACAGCAAUAUUACGGCAU	-0.301 ± 0.081	-0.278 ± 0.11
GUACAGCAAUAUUACGGCGU	-0.577 ± 0.069	0.482 ± 0.085
GUACAGCAAUAUUACGGGAA	-3.59 ± 0.25	-2.24 ± 0.22
GUACAGCAAUAUUACGGGAC	-1.7 ± 0.12	-1.22 ± 0.14
GUACAGCAAUAUUACGGGGG	-3.36 ± 0.12	-3.03 ± 0.15
GUACAGCAAUAUUACGGUCA	-0.796 ± 0.068	-0.618 ± 0.082
GUACAGCAAUAUUACGGUCG	-1.36 ± 0.058	-0.547 ± 0.084
GUACAGCAAUAUUACGUCAC		-2.14 ± 0.31
GUACAGCAAUAUUACGUCAG	-4.26 ± 0.29	-2.99 ± 0.26
GUACAGCAAUAUUACGUCGG	-3.45 ± 0.27	-2.4 ± 0.25
GUACAGCAAUAUUACGUCUA	-1.11 ± 0.091	-0.268 ± 0.081
GUACAGCAAUAUUACGUGAG	-1.42 ± 0.074	-0.954 ± 0.093
GUACAGCAAUAUUACGUGGA	-4.34 ± 0.29	-2.52 ± 0.14
GUACAGCAAUAUUACGUGUG	-2.12 ± 0.087	-1.45 ± 0.1
GUACAGCAAUAUUACGUUGA	-2.77 ± 0.12	-1.59 ± 0.095
GUAGAGCAAUAUUACGAAAA		-0.266 ± 0.44
